Measurements taken from the Human Domainome abundance scans (Beltran et al. 2025).
± gives the uncertainty stated by the source.

B1: Zinc finger homeobox protein 4, residues 2562 to 2617; numbered along this chain, Q86UP3 (parent)
chain: RLRTTITPEQLEILYEKYLLDSNPTRKMLDHIAREVGLKKRVVQVWFQNTRARERK
B2: Nucleolar transcription factor 1, residues 408 to 469; numbered along this chain, P17480 (parent)
chain: KRPVSAMFIFSEEKRRQLQEERPELSESELTRLLARMWNDLSEKKKAKYKAREAALKAQSER

Variants of: B1
Assay: abundance fitness (aPCA) (normalised: wild type 0, dead -1); higher = more abundant; growth selection in yeast, the domain comes from the species named
Settings: Homo sapiens

Variant | abundance fitness
RLATTITPEQLEILYEKYLLDSNPTRKMLDHIAREVGLKKRVVQVWFQNTRARERK [R3A] | 0.119 ± 0.053
RLDTTITPEQLEILYEKYLLDSNPTRKMLDHIAREVGLKKRVVQVWFQNTRARERK [R3D] | 0.68 ± 0.12
SLRTTITPEQLEILYEKYLLDSNPTRKMLDHIAREVGLKKRVVQVWFQNTRARERK [R1S] | 0.311 ± 0.17
TLRTTITPEQLEILYEKYLLDSNPTRKMLDHIAREVGLKKRVVQVWFQNTRARERK [R1T] | -0.054 ± 0.27
ALRTTITPEQLEILYEKYLLDSNPTRKMLDHIAREVGLKKRVVQVWFQNTRARERK [R1A] | 0.743 ± 0.28
NLRTTITPEQLEILYEKYLLDSNPTRKMLDHIAREVGLKKRVVQVWFQNTRARERK [R1N] | 0.002 ± 0.29
CLRTTITPEQLEILYEKYLLDSNPTRKMLDHIAREVGLKKRVVQVWFQNTRARERK [R1C] | 0.24 ± 0.25
RRRTTITPEQLEILYEKYLLDSNPTRKMLDHIAREVGLKKRVVQVWFQNTRARERK [L2R] | -0.176 ± 0.076
RARTTITPEQLEILYEKYLLDSNPTRKMLDHIAREVGLKKRVVQVWFQNTRARERK [L2A] | -0.059 ± 0.065
RCRTTITPEQLEILYEKYLLDSNPTRKMLDHIAREVGLKKRVVQVWFQNTRARERK [L2C] | -0.296 ± 0.083
RQRTTITPEQLEILYEKYLLDSNPTRKMLDHIAREVGLKKRVVQVWFQNTRARERK [L2Q] | -0.603 ± 0.2
RFRTTITPEQLEILYEKYLLDSNPTRKMLDHIAREVGLKKRVVQVWFQNTRARERK [L2F] | 0.066 ± 0.063
RGRTTITPEQLEILYEKYLLDSNPTRKMLDHIAREVGLKKRVVQVWFQNTRARERK [L2G] | -0.132 ± 0.079
RSRTTITPEQLEILYEKYLLDSNPTRKMLDHIAREVGLKKRVVQVWFQNTRARERK [L2S] | 0.161 ± 0.068
RIRTTITPEQLEILYEKYLLDSNPTRKMLDHIAREVGLKKRVVQVWFQNTRARERK [L2I] | -0.115 ± 0.14
RDRTTITPEQLEILYEKYLLDSNPTRKMLDHIAREVGLKKRVVQVWFQNTRARERK [L2D] | 0.31 ± 0.13
RKRTTITPEQLEILYEKYLLDSNPTRKMLDHIAREVGLKKRVVQVWFQNTRARERK [L2K] | 0.24 ± 0.1
RMRTTITPEQLEILYEKYLLDSNPTRKMLDHIAREVGLKKRVVQVWFQNTRARERK [L2M] | 0.024 ± 0.11
RTRTTITPEQLEILYEKYLLDSNPTRKMLDHIAREVGLKKRVVQVWFQNTRARERK [L2T] | 0.105 ± 0.12
RVRTTITPEQLEILYEKYLLDSNPTRKMLDHIAREVGLKKRVVQVWFQNTRARERK [L2V] | -0.023 ± 0.061
RNRTTITPEQLEILYEKYLLDSNPTRKMLDHIAREVGLKKRVVQVWFQNTRARERK [L2N] | 0.309 ± 0.09
RWRTTITPEQLEILYEKYLLDSNPTRKMLDHIAREVGLKKRVVQVWFQNTRARERK [L2W] | -0.421 ± 0.12
RHRTTITPEQLEILYEKYLLDSNPTRKMLDHIAREVGLKKRVVQVWFQNTRARERK [L2H] | -0.357 ± 0.22
RERTTITPEQLEILYEKYLLDSNPTRKMLDHIAREVGLKKRVVQVWFQNTRARERK [L2E] | 0.429 ± 0.079

Variants of: B2
Assay: as above
Settings: Homo sapiens

Variant | abundance fitness
KRPVSAMFIFSEEKRRQLQEERPELSESELTRLLARMWNDLSEKKKAKYKAREAALKAQSEP [R62P] | -0.232 ± 0.081
KRPVSAMFIFSEEKRRQLQEERPELSESELTRLLARMWNDLSEKKKAKYKAREAALKAQSEK [R62K] | 0.042 ± 0.1
KRPVSAMFIFSEEKRRQLQEERPELSESELTRLLARMWNDLSEKKKAKYKAREAALKAQSEF [R62F] | -0.317 ± 0.34
KRPVSAMFIFSEEKRRQLQEERPELSESELTRLLARMWNDLSEKKKAKYKAREAALKAQSEI [R62I] | -0.055 ± 0.16
KRPVSAMFIFSEEKRRQLQEERPELSESELTRLLARMWNDLSEKKKAKYKAREAALKAQSEL [R62L] | -0.094 ± 0.069
KRPVSAMFIFSEEKRRQLQEERPELSESELTRLLARMWNDLSEKKKAKYKAREAALKAQSEW [R62W] | 0.014 ± 0.11
KRPVSAMFIFSEEKRRQLQEERPELSESELTRLLARMWNDLSEKKKAKYKAREAALKAQSEG [R62G] | 0.055 ± 0.033
KRPVSAMFIFSEEKRRQLQEERPELSESELTRLLARMWNDLSEKKKAKYKAREAALKAQSEM [R62M] | -0.019 ± 0.1
KRPVSAMFIFSEEKRRQLQEERPELSESELTRLLARMWNDLSEKKKAKYKAREAALKAQSES [R62S] | -0.019 ± 0.066
KRPVSAMFIFSEEKRRQLQEERPELSESELTRLLARMWNDLSEKKKAKYKAREAALKAQSEN [R62N] | -0.224 ± 0.12
KRPVSAMFIFSEEKRRQLQEERPELSESELTRLLARMWNDLSEKKKAKYKAREAALKAQSEY [R62Y] | 0.016 ± 0.12
KRPVSAMFIFSEEKRRQLQEERPELSESELTRLLARMWNDLSEKKKAKYKAREAALKAQSEE [R62E] | 0.027 ± 0.19
KRPVSAMFIFSEEKRRQLQEERPELSESELTRLLARMWNDLSEKKKAKYKAREAALKAQSEA [R62A] | 0.079 ± 0.18
KRPVSAMFIFSEEKRRQLQEERPELSESELTRLLARMWNDLSEKKKAKYKAREAALKAQSEQ [R62Q] | 0.004 ± 0.1
KRPVSAMFIFSEEKRRQLQEERPELSESELTRLLARMWNDLSEKKKAKYKAREAALKAQSET [R62T] | -0.051 ± 0.09
KRPVSAMFIFSEEKRRQLQEERPELSESELTRLLARMWNDLSEKKKAKYKAREAALKAQSED [R62D] | 0.073 ± 0.15
KRPVSAMFIFSEEKRRQLQEERPELSESELTRLLARMWNDLSEKKKAKYKAREAALKAISER [Q59I] | -0.008 ± 0.065
KRPVSAMFIFSEEKRRQLQEERPELSESELTRLLARMWNDLSEKKKAKYKAREAALKAKSER [Q59K] | 0.03 ± 0.071
KRPVSAMFIFSEEKRRQLQEERPELSESELTRLLARMWNDLSEKKKAKYKAREAALKAESER [Q59E] | 0.009 ± 0.064
KRPVSAMFIFSEEKRRQLQEERPELSESELTRLLARMWNDLSEKKKAKYKAREAALKADSER [Q59D] | 0 ± 0.091
